Experimental data published in patent US20240067738A1 (ELANCO US, published 2024).

Key:
[1] = target: T1, Canine/Human IL4R-ECD_C-HuFc_His6 Hybrid 13 (canine/human hybrid); assay: Western blot, non-reducing
T1 construct: Canine G1-S89 and P110-P204; human G90-H109

[2] = target: Equine IL4R-ECD_C-HuFc_His6 (processed) (equine); assay: Western blot, non-reducing
[3] = target: Human IL4R-ECD_C-HuFc_His6 (processed) (human); assay: Western blot, non-reducing
[4] = target: Murine IL4R-ECD_C-HuFc_His6 (processed) (murine); assay: Western blot, non-reducing
[5] = target: T2, Canine/Human IL4R-ECD_C-HuFc_His6 Hybrid 6 (canine/human hybrid); assay: Western blot, non-reducing
T2 construct: Canine G1-N55 and P110-P204; human N56-H109

[6] = target: T3, Canine/Human IL4R-ECD_C-HuFc_His6 Hybrid 1 (canine/human hybrid); assay: Western blot, non-reducing
T3 construct: Canine G1-N55, human N56-H209, human Fc-His6; Tested as 3-fold concentrated 293 supernatant

[7] = target: Feline IL4R-ECD_C-HuFc_His6 (processed) (feline); assay: BLI (Octet), biotinylated feline IL4R-ECD_C-HuFc_His6 on streptavidin tips, antibody 25 µg/mL, 1:1 fit
Description: This finding was consistent with in vitro binding affinity measured by Octet Biosensor. Biotinylated feline IL4R-ECD_C-HuFc_His6 (SEQ ID NO: 111) was captured on streptavidin sensor tips. The association of Clone I antibody (25 μg/mL) and feline IL4R-ECD_C-HuFc_His6 was monitored for 600 seconds. Dissociation was monitored for 600 seconds. A buffer only blank curve was subtracted to correct for any drift. The data were fit to a 1:1 binding model using ForteBio™ data analysis software to determine the kₒₙ, koff, and the Kd. The buffer for dilutions and all binding steps was 20 mM phosphate, 150 mM NaCl, pH 7.2.

Murine IL4R-ECD_C-HuFc_His6 (processed) (murine), sequence (chain, as listed by the source limits assumed): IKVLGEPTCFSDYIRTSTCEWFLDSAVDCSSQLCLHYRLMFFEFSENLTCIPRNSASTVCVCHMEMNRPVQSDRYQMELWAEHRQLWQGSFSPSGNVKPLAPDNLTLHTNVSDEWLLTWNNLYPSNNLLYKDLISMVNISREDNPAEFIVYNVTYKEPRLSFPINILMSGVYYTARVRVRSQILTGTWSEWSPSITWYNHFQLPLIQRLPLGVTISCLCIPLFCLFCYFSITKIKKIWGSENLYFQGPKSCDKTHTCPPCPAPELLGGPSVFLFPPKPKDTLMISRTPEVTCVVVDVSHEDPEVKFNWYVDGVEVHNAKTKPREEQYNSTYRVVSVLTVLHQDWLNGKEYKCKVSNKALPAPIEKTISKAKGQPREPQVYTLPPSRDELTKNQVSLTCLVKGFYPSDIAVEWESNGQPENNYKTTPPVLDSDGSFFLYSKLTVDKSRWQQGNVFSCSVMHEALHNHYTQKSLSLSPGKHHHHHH
T1 sequence (chain, as listed by the source limits assumed): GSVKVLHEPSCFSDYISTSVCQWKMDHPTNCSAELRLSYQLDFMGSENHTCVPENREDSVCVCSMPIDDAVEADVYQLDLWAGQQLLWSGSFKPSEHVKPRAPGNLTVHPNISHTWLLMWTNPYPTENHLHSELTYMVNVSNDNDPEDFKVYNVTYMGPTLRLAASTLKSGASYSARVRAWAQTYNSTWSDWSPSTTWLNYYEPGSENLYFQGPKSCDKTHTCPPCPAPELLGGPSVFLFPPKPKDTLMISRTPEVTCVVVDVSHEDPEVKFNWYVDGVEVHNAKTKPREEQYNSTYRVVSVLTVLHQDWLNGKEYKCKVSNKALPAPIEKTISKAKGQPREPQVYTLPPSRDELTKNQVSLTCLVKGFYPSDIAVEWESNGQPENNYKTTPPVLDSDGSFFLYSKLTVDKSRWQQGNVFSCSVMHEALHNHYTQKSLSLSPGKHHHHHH
T3 sequence (chain, as listed by the source limits assumed): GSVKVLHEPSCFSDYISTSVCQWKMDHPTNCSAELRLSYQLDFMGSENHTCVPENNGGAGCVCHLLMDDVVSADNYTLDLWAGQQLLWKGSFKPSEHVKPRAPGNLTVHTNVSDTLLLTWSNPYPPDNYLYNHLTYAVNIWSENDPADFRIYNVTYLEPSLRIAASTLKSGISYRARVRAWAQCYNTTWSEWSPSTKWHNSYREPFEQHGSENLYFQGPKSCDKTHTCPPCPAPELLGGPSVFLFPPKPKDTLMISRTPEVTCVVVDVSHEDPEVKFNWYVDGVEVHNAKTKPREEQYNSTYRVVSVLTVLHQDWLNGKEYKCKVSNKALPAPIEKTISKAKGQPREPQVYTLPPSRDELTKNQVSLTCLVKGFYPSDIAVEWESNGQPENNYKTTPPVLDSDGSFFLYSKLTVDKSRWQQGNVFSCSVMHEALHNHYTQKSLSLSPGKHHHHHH
Feline IL4R-ECD_C-HuFc_His6 (processed) (feline), sequence (chain, as listed by the source limits assumed): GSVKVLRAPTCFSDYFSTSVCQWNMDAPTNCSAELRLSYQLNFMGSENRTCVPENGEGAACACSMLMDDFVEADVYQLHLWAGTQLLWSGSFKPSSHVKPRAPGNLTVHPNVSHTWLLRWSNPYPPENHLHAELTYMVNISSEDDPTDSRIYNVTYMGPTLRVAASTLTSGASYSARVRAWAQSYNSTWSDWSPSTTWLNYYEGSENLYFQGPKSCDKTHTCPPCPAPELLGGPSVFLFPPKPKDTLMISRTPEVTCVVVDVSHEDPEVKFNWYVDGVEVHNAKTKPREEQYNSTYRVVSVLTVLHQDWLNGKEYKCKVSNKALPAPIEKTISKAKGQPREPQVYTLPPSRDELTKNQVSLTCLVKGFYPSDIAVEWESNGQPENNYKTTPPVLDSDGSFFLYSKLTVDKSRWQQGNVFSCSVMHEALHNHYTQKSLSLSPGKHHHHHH
Human IL4R-ECD_C-HuFc_His6 (processed) (human), sequence (chain, as listed by the source limits assumed): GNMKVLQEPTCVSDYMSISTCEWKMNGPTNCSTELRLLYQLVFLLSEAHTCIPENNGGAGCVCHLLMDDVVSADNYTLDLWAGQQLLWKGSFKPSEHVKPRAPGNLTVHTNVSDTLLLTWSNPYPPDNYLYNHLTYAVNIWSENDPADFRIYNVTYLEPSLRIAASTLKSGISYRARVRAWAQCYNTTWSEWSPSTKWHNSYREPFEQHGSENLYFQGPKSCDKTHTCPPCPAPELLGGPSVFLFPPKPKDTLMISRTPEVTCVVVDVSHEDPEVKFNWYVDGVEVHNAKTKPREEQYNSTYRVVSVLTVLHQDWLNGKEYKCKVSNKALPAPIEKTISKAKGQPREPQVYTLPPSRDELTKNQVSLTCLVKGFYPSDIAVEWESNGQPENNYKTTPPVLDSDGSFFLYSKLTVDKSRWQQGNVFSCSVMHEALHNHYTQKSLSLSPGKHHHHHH
T2 sequence (chain, as listed by the source limits assumed): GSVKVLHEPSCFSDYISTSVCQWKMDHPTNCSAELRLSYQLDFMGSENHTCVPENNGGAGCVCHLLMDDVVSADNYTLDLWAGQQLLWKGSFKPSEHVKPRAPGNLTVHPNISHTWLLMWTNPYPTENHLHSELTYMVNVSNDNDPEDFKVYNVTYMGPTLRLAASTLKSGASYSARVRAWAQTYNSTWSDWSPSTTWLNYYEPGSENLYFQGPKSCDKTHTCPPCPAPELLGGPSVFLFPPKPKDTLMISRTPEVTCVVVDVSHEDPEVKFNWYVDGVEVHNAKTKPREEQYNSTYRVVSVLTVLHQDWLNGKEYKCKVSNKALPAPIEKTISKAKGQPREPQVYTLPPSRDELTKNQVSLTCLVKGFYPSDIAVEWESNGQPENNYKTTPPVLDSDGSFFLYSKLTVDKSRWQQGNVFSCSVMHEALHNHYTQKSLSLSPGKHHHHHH
Equine IL4R-ECD_C-HuFc_His6 (processed) (equine), sequence (chain, as listed by the source limits assumed): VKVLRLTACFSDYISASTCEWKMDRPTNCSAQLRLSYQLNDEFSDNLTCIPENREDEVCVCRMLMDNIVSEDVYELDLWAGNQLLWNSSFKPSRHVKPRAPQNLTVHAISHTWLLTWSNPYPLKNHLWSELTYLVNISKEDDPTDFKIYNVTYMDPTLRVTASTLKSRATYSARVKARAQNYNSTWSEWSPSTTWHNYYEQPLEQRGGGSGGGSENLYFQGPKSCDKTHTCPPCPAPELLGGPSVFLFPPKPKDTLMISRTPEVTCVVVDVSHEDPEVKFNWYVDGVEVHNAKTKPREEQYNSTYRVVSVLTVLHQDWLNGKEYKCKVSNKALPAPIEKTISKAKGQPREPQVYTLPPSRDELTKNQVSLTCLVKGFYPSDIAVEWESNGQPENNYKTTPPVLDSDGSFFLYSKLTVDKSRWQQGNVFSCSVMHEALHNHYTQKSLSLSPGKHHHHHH

B1: Clone I mouse monoclonal antibody (antibody, mouse IgG1, kappa, V domains shown)
VH: EVQLQQSGPELVKPGASVKMSCKASGYTFTSYVMHWVKQKPGQGLEWIGYINPNNDGTFYNGKFKGKATLTSDKSSSTAYMELSSLTSEDSAVYYCAAFYYGFAYWGQGTLVTVSA
VL: DIVLTQSPSSLSASLGERVSLTCRASQEISGYLSWLQQKPDGTIKRLIYAASTLDSGVPKRFSGSRSGSDFSLTISSLESEDFADYYCLQYASYPWTFGGGAKLEIKR
notes: also called Clone I antibody; anti-IL4R-mAb Clone I
B1: binds [1]; no binding (tested: Clone I 0.3 µg/mL; 0.1 µg/lane) [2]; no binding (tested: Clone I 0.3 µg/mL; 0.1 µg/lane) [3]. B1: no binding (tested: Clone I 0.3 µg/mL; 0.1 µg/lane) [4]; binds [5]; binds [6]. For the same binder, the Kd [7] was 1.1 nM.
